Data: article PMC10873344

Tests used:
[1] = target: mouse SEL1L S658P/F668Y-FLAG (mouse); assay: co-IP; anti-FLAG agarose IP from lysates of SEL1L-/- HEK293T cells transfected with SEL1L-FLAG variants, blots for endogenous partners; 150 mM NaCl, 0.2% NP-40, 0.1% Triton X-100, 25 mM Tris-HCl pH 7.5, overnight at 4 C
[2] = target: SEL1L^S658P, endogenous mouse (homozygous KI liver) (mouse (endogenous in liver)); assay: co-IP; IP of endogenous SEL1L or HRD1 (home-made antibody, protein A agarose) from livers of 5-week-old WT, HET and KI mice; 150 mM NaCl, 1% NP-40, 25 mM Tris-HCl pH 7.5
[3] = target: HRD1 (HMG-CoA reductase degradation 1), endogenous human, Q86TM6-3; assay: co-immunoprecipitation (FLAG-agarose IP, Western blot quantitation); conditions: SEL1L-/- HEK293T cells; n = 3; mean ± SEM; parent: est. 1.0; read off a plot
Chain of HRD1 (HMG-CoA reductase degradation 1), endogenous human, Q86TM6-3 (Q86TM6 other isoform, or with tags, fused parts or gaps): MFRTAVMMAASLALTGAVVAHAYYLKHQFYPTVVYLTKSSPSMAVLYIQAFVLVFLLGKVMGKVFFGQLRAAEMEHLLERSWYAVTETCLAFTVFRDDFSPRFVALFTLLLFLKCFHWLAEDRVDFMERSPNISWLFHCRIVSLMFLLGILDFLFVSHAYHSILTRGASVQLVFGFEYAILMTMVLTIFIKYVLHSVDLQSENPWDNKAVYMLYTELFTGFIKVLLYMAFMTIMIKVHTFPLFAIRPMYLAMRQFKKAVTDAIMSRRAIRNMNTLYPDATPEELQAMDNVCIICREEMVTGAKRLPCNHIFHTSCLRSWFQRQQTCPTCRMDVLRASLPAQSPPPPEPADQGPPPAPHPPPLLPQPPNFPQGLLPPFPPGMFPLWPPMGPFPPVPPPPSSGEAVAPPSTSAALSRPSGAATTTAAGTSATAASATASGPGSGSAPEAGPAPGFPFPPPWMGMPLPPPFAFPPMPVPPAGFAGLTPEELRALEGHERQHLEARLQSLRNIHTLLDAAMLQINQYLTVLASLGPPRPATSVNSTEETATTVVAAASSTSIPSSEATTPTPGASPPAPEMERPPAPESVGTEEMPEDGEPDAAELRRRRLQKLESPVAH

[4] = target: OS9 (Osteosarcoma amplified 9), endogenous human (UniProt Q13438); assay: as above; conditions: SEL1L-/- HEK293T cells; n = 3; mean ± SEM; parent: est. 1.0; read off a plot
Chain of UniProt Q13438 (Q13438 26-667): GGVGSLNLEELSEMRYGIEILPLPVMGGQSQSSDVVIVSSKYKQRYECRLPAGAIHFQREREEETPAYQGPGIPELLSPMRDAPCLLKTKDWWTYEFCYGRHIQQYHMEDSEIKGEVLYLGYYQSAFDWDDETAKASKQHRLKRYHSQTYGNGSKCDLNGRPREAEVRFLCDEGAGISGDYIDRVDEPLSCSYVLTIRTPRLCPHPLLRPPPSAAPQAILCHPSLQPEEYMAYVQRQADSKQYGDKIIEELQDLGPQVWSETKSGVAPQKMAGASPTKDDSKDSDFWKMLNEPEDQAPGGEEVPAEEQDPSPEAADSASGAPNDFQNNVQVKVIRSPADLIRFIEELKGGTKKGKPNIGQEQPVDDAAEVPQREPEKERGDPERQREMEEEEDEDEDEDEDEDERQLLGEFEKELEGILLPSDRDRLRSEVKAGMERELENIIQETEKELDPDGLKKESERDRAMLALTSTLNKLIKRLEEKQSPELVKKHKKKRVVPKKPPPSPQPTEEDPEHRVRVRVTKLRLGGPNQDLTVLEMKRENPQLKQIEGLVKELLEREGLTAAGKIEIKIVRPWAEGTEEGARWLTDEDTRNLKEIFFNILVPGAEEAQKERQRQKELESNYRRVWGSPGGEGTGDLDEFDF

[5] = target: HRD1 (HMG-CoA reductase degradation 1), endogenous human, Q86TM6-3; assay: as above; conditions: SEL1L-/- HEK293T cells; n = 3; mean ± SEM; parent: est. 1.0; read off a plot; remark: listed apart in the source
[6] = target: OS9 (Osteosarcoma amplified 9), endogenous human (UniProt Q13438); assay: as above; conditions: SEL1L-/- HEK293T cells; n = 3; mean ± SEM; parent: est. 1.0; read off a plot; remark: listed apart in the source

## HRD1 (HMG-CoA reductase degradation 1), endogenous human (from UniProt Q86TM6-3 1-616) (enzyme)
[1]
  fold increase against SEL1L S658P: 2 fold

## HRD1, endogenous mouse (liver) (from UniProt Q9DBY1 1-612) (enzyme)
[2]
  fold reduction against WT and HET livers: 5 fold

## mouse SEL1L (WT)-FLAG (from UniProt Q9Z2G6-1) F668A
[3]
  response: 0.07 a.u.
[4]
  response: 1 a.u.

## mouse SEL1L (WT)-FLAG (from UniProt Q9Z2G6-1) F668Y
[5]
  response: 0.9 a.u.
[6]
  response: 1 a.u.

## mouse SEL1L (WT)-FLAG (from UniProt Q9Z2G6-1) S658P
[3]
  response: 0.15 a.u.
[4]
  response: 1 a.u.
[5]
  response: 0.17 a.u.
[6]
  response: 0.95 a.u.

## mouse SEL1L (WT)-FLAG (from UniProt Q9Z2G6-1) S658P; F668A
[3]
  response: 0.11 a.u.
[4]
  response: 0.97 a.u.

## mouse SEL1L (WT)-FLAG (from UniProt Q9Z2G6-1) S658P; F668Y
[6]
  response: 0.95 a.u.
